Experimental data taken from article doi:10.1101/2023.01.19.524411 (bioRxiv, 2023).

Target: the molecule itself
Test: native gel or EMSA

B1: flag-tagged STING (stimulator of interferon genes) (natural protein, UniProt Q3TBT3 1-378, looked up)
chain: MPYSNLHPAIPRPRGHRSKYVALIFLVASLMILWVAKDPPNHTLKYLALHLASHELGLLLKNLCCLAEELCHVQSRYQGSYWKAVRACLGCPIHCMAMILLSSYFYFLQNTADIYLSWMFGLLVLYKSLSMLLGLQSLTPAEVSAVCEEKKLNVAHGLAWSYYIGYLRLILPGLQARIRMFNQLHNNMLSGAGSRRLYILFPLDCGVPDNLSVVDPNIRFRDMLPQQNIDRAGIKNRVYSNSVYEILENGQPAGVCILEYATPLQTLFAMSQDAKAGFSREDRLEQAKLFCRTLEEILEDVPESRNNCRLIVYQEPTDGNSFSLSQEVLRHIRQEEKEEVTMNAPMTSVAPPPSVLSQEPRLLISGMDQPLPLRTDLI
B1 was tested, and the “stoichiometry N” value was 2.
